Laboratory results from paper PMC6858323 (2019).

B1: PilT^Pa two-hybrid fusion from pKT25::PilT^Pa (wild type) [Pseudomonas aeruginosa] / PilC^Pa two-hybrid fusion from pUT18C::PilC^Pa [Pseudomonas aeruginosa] (parent complex)
chain 1: MDITELLAFSAKQGASDLHLSAGLPPMIRVDGDVRRINLPPLEHKQVHALIYDIMNDKQRKDFEEFLETDFSFEVPGVARFRVNAFNQNRGAGAVFRTIPSKVLTMEELGMGEVFKRVSDVPRGLVLVTGPTGSGKSTTLAAMLDYLNNTKYHHILTIEDPIEFVHESKKCLVNQREVHRDTLGFSEALRSALREDPDIILVGEMRDLETIRLALTAAETGHLVFGTLHTTSAAKTIDRVVDVFPAEEKAMVRSMLSESLQSVISQTLIKKIGGGRVAAHEIMIGTPAIRNLIREDKVAQMYSAIQTGGSLGMQTLDMCLKGLVAKGLISRENAREKAKIPENF
chain 2: MLVKAHLRKQGINPLKVRKKGISLLGAGKKVKPMDIALFTRQMATMMGAGVPLLQSFDIIGEGFDNPNMRKLVDEIKQEVSSGNSLANSLRKKPQYFDELYCNLVDAGEQSGALENLLDRVATYKEKTESLKAKIRKAMTYPIAVIIVALIVSAILLIKVVPQFQSVFQGFGAELPAFTQMVVNLSEFLQEWWLAVIVGVGAIGFTFKELHKRSKKFRDTLDRTILKLPIFGGIVYKSAVARYARTLSTTFAAGVPLVDALDSVSGATGNIVFKNAVSKIKQDVSTGMQLNFSMRTTSVFPNMAIQMTAIGEESGSLDEMLSKVASYYEEEVDNAVDNLTTLMEPMIMAVLGVLVGGLIVAMYLPIFQLGNVVG

Variants of: B1
Assay: bacterial two-hybrid (BACTH), β-galactosidase activity; E. coli BTH101; n = 3; parent: 650; read off a plot

| Variant | response |
| --- | --- |
| chain 1 R123D | ~140 Miller units |
| chain 1 T216R | ~700 Miller units |
| chain 1 D242K | ~670 Miller units |
| chain 1 K58Q | ~630 Miller units |
| chain 1 K58A | ~700 Miller units |
| chain 1 K58R | ~750 Miller units |
| chain 1 E219K | ~230 Miller units |
| chain 1 R294E | ~200 Miller units |
| chain 1 D31K | ~220 Miller units |
| chain 1 R239A | ~490 Miller units |
| chain 1 E258A | ~850 Miller units |
